One test addresses T1, Mcm4 (Saccharomyces cerevisiae, UniProt P30665 1-933).
T1 construct: Mcm4, Saccharomyces cerevisiae, full length; Subunit of m2, written alone for the contacts seen in the cryo-EM structures
T1 sequence (looked up): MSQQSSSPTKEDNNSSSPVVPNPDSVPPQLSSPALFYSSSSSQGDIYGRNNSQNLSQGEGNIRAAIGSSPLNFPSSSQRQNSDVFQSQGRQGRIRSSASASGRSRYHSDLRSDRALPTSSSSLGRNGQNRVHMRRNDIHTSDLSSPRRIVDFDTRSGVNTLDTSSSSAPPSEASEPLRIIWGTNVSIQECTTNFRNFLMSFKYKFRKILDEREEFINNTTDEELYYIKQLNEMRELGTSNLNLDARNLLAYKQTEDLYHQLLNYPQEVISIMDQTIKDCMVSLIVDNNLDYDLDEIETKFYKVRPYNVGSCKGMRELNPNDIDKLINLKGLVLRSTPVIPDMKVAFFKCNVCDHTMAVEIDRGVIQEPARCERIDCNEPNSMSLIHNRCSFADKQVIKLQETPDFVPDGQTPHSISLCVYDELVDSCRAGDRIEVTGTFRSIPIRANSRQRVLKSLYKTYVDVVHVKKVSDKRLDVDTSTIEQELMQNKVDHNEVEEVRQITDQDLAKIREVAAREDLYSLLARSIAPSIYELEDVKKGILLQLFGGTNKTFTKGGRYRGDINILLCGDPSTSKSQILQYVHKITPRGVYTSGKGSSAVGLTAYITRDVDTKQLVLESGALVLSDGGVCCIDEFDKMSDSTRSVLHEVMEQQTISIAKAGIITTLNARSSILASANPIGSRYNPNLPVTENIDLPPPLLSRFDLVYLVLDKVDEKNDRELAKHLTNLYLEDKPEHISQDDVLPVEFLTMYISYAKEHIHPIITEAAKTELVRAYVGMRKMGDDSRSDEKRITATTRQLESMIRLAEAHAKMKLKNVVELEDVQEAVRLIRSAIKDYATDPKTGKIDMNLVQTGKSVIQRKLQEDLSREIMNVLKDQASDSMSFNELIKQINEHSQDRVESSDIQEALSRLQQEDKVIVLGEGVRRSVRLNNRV
Description: cryo-EM structure; MD-(ATPγS): 250 nM DH released from beads by AluI + 750 nM DDK, 10 min 24 °C, buffer C with 3 mM ATPγS; GraFix glycerol gradient with glutaraldehyde; states I-III. As to conditions: both partners purified.

In the next test the target is T2, Dbf4 (Saccharomyces cerevisiae, UniProt P32325 1-704).
T2 construct: Dbf4, Saccharomyces cerevisiae, full length (41% resolved in the map); Subunit of m1, written alone for the contacts seen in the cryo-EM structures; also called dumbbell former 4; source: budding yeast cells, purified as subunit of DDK
T2 sequence (looked up): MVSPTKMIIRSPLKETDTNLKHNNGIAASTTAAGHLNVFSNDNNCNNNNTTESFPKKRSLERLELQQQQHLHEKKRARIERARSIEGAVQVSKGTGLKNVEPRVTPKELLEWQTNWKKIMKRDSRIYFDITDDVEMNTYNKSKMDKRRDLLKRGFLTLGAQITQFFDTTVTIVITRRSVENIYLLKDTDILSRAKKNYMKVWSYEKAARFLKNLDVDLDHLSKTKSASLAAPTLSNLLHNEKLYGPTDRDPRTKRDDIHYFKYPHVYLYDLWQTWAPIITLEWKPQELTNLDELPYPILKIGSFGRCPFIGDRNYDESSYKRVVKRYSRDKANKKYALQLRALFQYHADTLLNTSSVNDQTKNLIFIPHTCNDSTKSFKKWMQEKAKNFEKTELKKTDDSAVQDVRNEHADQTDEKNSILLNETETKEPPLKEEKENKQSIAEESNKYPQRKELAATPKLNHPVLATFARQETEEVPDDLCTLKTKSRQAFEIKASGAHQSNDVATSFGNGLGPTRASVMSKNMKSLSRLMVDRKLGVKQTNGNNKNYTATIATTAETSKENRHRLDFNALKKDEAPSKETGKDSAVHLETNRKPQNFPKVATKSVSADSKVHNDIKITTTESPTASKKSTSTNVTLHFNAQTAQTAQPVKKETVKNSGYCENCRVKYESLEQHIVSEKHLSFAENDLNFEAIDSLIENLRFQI
The description is as above. As to conditions: both partners purified.

B1: Cdc7 (enzyme, Saccharomyces cerevisiae, UniProt P06243 1-507, looked up)
chain: MTSKTKNIDDIPPEIKEEMIQLYHDLPGIENEYKLIDKIGEGTFSSVYKAKDITGKITKKFASHFWNYGSNYVALKKIYVTSSPQRIYNELNLLYIMTGSSRVAPLCDAKRVRDQVIAVLPYYPHEEFRTFYRDLPIKGIKKYIWELLRALKFVHSKGIIHRDIKPTNFLFNLELGRGVLVDFGLAEAQMDYKSMISSQNDYDNYANTNHDGGYSMRNHEQFCPCIMRNQYSPNSHNQTPPMVTIQNGKVVHLNNVNGVDLTKGYPKNETRRIKRANRAGTRGFRAPEVLMKCGAQSTKIDIWSVGVILLSLLGRRFPMFQSLDDADSLLELCTIFGWKELRKCAALHGLGFEASGLIWDKPNGYSNGLKEFVYDLLNKECTIGTFPEYSVAFETFGFLQQELHDRMSIEPQLPDPKTNMDAVDAYELKKYQEEIWSDHYWCFQVLEQCFEMDPQKRSSAEDLLKTPFFNELNENTYLLDGESTDEDDVVSSSEADLLDKDVLLISE
notes: Cdc7 serine/threonine kinase, Saccharomyces cerevisiae, full length (87% resolved in the map); Subunit of m1, written alone for the contacts seen in the cryo-EM structures; also called Cdc7 kinase; Cdc7 serine/threonine kinase; source: budding yeast cells, purified as subunit of DDK
As to B1, the binding result with Mcm4 and with Dbf4 was “binds” throughout.

Source of the values: PMC9133112, “The structural basis of Cdc7-Dbf4 kinase dependent targeting and phosphorylation of the MCM2-7 double hexamer” (Nature Communications, 2022).
